According to publication PMC5087089:

Experiments:
[1] = target: Y98F HA trimer from A/New Caledonia/20/1999 (H1 1999 NC), soluble trimeric format (influenza A virus A/New Caledonia/20/1999 (H1 1999 NC)); test: SEC; size exclusion on a Sepharose 10/300 column
[2] = target: wildtype (WT) HA trimer from A/New Caledonia/20/1999 (H1 1999 NC), soluble trimeric format (influenza A virus A/New Caledonia/20/1999 (H1 1999 NC)) (UniProt Q6WG00); test: SEC; size exclusion on a Sepharose 10/300 column

With “Y98F HA trimer from A/New Caledonia/20/1999 (H1 1999 NC), soluble trimeric format (natural protein)” the stoichiometry N [1] was 3.
Work on “wildtype (WT) HA trimer from A/New Caledonia/20/1999 (H1 1999 NC), soluble trimeric format (from UniProt Q6WG00 1-565) (natural protein)” yielded a stoichiometry N [2] of 3.
